Assay [1] has as its target HIV-1 capsid protein C-terminal domain, CA-CTD (Met144-Leu231) (HIV-1). In words: NMR titration.
Assay [2] deals with HIV-1 capsid protein CA (Human immunodeficiency virus 1) (UniProt O93182). Conditions: cited from earlier work.

Sequence of HIV-1 capsid protein CA (O93182 133-363): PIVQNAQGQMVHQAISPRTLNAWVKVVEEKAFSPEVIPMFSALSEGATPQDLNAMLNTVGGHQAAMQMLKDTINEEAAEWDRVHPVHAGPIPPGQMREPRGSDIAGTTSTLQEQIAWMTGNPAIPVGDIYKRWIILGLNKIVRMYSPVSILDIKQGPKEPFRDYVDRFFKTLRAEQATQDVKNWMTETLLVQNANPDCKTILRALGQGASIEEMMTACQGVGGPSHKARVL

In general, Kd refers to the constant that tells how readily two partners part at equilibrium. Turning to “HIV-1 capsid protein C-terminal domain, CA-CTD (Met144-Leu231) (domain or fragment)”, the equilibrium dissociation constant (Kd) in assay [1] came to 9.8 µM. Regarding “HIV-1 capsid protein CA (from UniProt O93182)”, the Kd in assay [2] is 18 µM.

The values are drawn from PMC2782912.
